The text below walks through data of a protein production outcome set (Wang et al. 2014).

This series can be described thus: label from the status in PepcDB records.

Take “MSLFTCEDPAVWKAVHNKYWTVVEAKSAGKRKTSGKLLQLDKWFQEDLPAAITARPERFLTHAELVKIMEWKLTKGKFRPRLQQLIGSNNEEAVQSSSSKAFSLLPDVQAAIKELCKLKGVGSATASAVLVAGAPDKVAFMADEAVESIAELRPVEYTDKHYALYLQKMLWKTSELNKVDAQQDWTPHRVEQCLWTWTVANQIQPSLLQGVSLKDATNQKPEKRKTADEKPSKRKKTE”: the protein production result was “failed”.
“MSLGHIIVTGAGSGLGRALTIGLVERGHQVSMMGRRYQRLQQQELLLGNAVIGIVADLAHHEDVDVAFAAAVEWGGLPELVLHCAGTGEFGPVGVYTAEQIRRVMESNLVSTILVAQQTVRLIGERGGVLANVLSSAAQVGKANESLYCASKWGMRGFLESLRAELKDSPLRLVNLYPSGIRSEFWDNTDHVDPSGFMTPEDAAAYMLDALEARSSCHVTDLFIGRNEGHHHHHH”: the protein production result is on record as “not failed”.
Consider “MSLGIIRSILDTDLYKFTTGYAYAKLFPRAYGEFRFIDRNRQGFTEEFAELVRGEIRAMAALSLTRDEKEFLQRELPYLPPIYIDFLDGFRFDPEEVTVSIDAQGHLDIRAQGLLYRVTLWETPILAVISELYYRFIGAKPDWKQVEEVTRSKGELMREHRTTFSIFGMRRRFSLEVEDRVTDILKQYAGESLFGTSNVHLAHKHGLRVSGTHPHEWIQFHGAIYGYKMANYVAMEDWINVYDGDLGTVLTDTYTTDVFMRNFSKKHAMLFTSLRHDSGDPEIFIEKAVRRYEELRVDPKIKYIIFSDSLTPQRAIEIQKLCAGRIKASFGIGTNLTNDVGGGVEPLNIVMKLWKCKMTAKDDWHYCVKLSDVDGKHTGEPEEILLAMNTLGIKPKEGHHHHHH”, for which the protein production entry is recorded as “not failed”.
For “MSLGKRIFVFDTTLRDGEQVPGCQLNTEEKIIVAKALDELGVDVIEAGFPVSSPGDFNSVVEITKAVTRPTICALTRAKEADINIAGEALRFAKRSRIHTGIGSSDIHIEHKLRSTRENILEMAVAAVKQAKKVVHEVEFFCEDAGRADQAFLARMVEAVIEAGADVVNIPDTTGYMLPWQYGERIKYLMDNVSNIDKAILSAHCHNDLGLATANSLAALQNGARQVECTINGIGERAGNTALEEVVMAMECHKETLGLETGINHKKLVPISHLVSTLMRMQVQSNKAIVGRNAFAHSSGIHQDGFLKHRETYEIIDEGHHHHHH”, the protein production result is recorded as “not failed”.
On to “MSLGQTTLACSFRSLTNPYYTAFNKGAQSFAKSVGLPYVPLTTEGSSEKGIADIRALLQKTGGNLVLNVDPNDSADARVIVEACSKAGAYVTTIWNKPKDLHPWDYNPNYVAHLSYDGVAYGEETATQLFKSMGGKGGVVALGGIFSNVPAIERKAGLDAALKKFPGIQLLDFQVADWNSQKAFPIMQAWMTRFNSKIKGVWAANDDMALGAIEALRAEGLAGQIPVTGMDGTQPGLVAIKSGELVASVDWDPFWLGGIGLSMGLQAKEKKIDLATLPKDRRESFCTATFVTKTNVQDVIARAASPKAEWNNLYARVAGPVVYREGHHHHHH”, for which the protein production entry is listed as “not failed”.
Turning to “MSLGRKQQYGTLASIAAKLGISRTTVSNAYNRPEQLSAELRQRILDTAEDMGYLGPDPVARSLRTRRAGAIGVLLTEDLTYAFEDMASVDFLAGVAQAAGDTQLTLIPASPASSVDHVSAQQLVNNAAVDGVVIYSVAKGDPHIDAIRARGLPAVIADQPAREEGMPFIAPNNRKAIAPAAQALIDAGHRKIGILSIRLDRANNDGEVTRERLENAQYQVQRDRVRGAMEVFIEAGIDPGTVPIMECWINNRQHNFEVAKELLETHPDLTAVLCTVDALAFGVLEYLKSVGKSAPADLSLTGFDGTHMALARDLTTVIQPNKLKGFKAGETLLKMIDKEYVEPEVELETSFHPGSTVAEGHHHHHH”, the protein production result is given as “not failed”.
“MSLHPHAMPDMGPDMNKVPWMGDEQIAMLVYPGMTVMDLVGPHCMFGSLMGAKIYIVAKSLDPVTSDAGLAIVPTATFGTCPRDLTVLFAPGGTDGTLAAASDAETLAFMADRGARAKYITSVCSGSLILGAAGLLKGYKATSHWSCRDALAGFGAIPTEARVVRDRNRITGAGVTAGLDFGLSMVAELRDQTYAECAQLMSEYDPDPPFNAGSMKTAPAHVRTAMIELVAEFTKKADALAGFPKEGHHHHHH”: the protein production result was “not failed”.
